Tests used:
[1] = target: Human adenovirus 7 penton base (human adenovirus 7); test: cryo-EM structure
[2] = target: Human adenovirus 7 fiber (human adenovirus 7); test: cryo-EM structure

Substance	stoichiometry N [1]	stoichiometry N [2]
Human adenovirus 7 penton base (natural protein)	5	–
Human adenovirus 7 fiber (natural protein)	–	3

— publication doi:10.1101/2025.09.22.677823
